According to patent US20220125947A1:
Positions count from the first letter of the chain named.

B1: VG9B189 (antibody, human IgG1, lambda, V domains shown)
VH: EVQLVQSGGGLVKPGASLKLSCAASGFTFSNHGMSWVRQTSDKRLEWVASITRGGDTTYYPDNVKGRFTISRENAKNTLYLQMSSLKSDDTALYYCTRGPLTVGYAMDYWGQGTTVTVSS
VL: QSVVTQPPSASGSPGQSVTISCTGTSSDVGGYNYVSWYQQHPGKAPKLMIYEVSKRPSGVPDRFSGSKSGNTASLTVSGLQAEDEADYYCNSYAGSNNFEVFGGGTKVTVLG
B2: VG9B191 (antibody, human IgG1, lambda, V domains shown)
VH: EVQLVQSGGGLVKPGGSLRLSCAASGFTFSRYSMNWVRQAPGKGLEGVSSISSSSSYIYYADSVKGRFTISRDNAKNSLYLQMNSLRAEDTAVYYCARDGPTVNWDYYFDLWGRGTLVTVSS
VL: QSVLTQPPSVSAAPGQKVTISCSGSSSNIGNNYVSWYQQLPGTAPKLLIYDNNKRPSGIPDRFSGSKSGTSATLGITGLQTGDEADYYCGTWDSSLSTSVVFGGGTKLTVLG
B3: VG9B33 (antibody, human IgG1, kappa, V domains shown)
VH: EVQLVESGGGLVKPGGSLRLSCAASGFTFSSYNMNWVRQAPGKGLEWVSSISTSSSYIYYADSVKGRFTISRDNAKNSLYLQMNGLRAEDTAVYYCARDTSVTKYPDTFDIWGQGTMVTVSS
VL: DIVMTQSPSSLSASVGDRVTITCRASQDINNYLAWFQQKPGKVPNLLIYGASTLQSGVPSRFTGSGSGTDFTLTISSLQPEDVATYYCQKYNSAPFTFGPGTKVDIKR
B4: VG9B162 (antibody, human IgG1, lambda, V domains shown)
VH: QVQLVESGAEVTKPGASVKVSCKASGYTFTGDYMHWVRQAPGQGLEWMGWINPNSGYTNYAQKFQGRVTMTRDTSISTAYMELSRLRSDDTAVYYCAREGDAFDVWGQGTMVTVSS
VL: B1 VL with S2L, V4L, P7S, P8S, V108L
B5: VG9B60 (antibody, human IgG1, kappa, V domains shown)
VH: QVQLVQSGAEVKKPGASVKVSCKASGYTFTGYYMHWVRQAPGQGLEWMGRINPNSGVTHYAQKFQGRVTMTRDTSISTAYMELSRLRSDDTAVYYCARGGSLVRGVISGLDYWGQGTTVTVSS
VL: DIVMTQSPGTLSLSPGERATLSCRASQSFSGSYLAWYQQKPGQAPSLLIYGASSRATGIPDRFSGSGSGTDFTLTISRLEPEDFALYYCQQYGSSPPYTFGQGTKVEIKR
B6: VG9B409 (antibody, human IgG1, kappa, V domains shown)
VH: EVQLVESGAEVKKPGASVKVSCKASGYTLTSYYMHWVRQAPGQGLEWMGIINPSGGSTSYAQKFQGRVTMTRDTSTSTVYMELSSLRSEDTAVYYCARGSYGWYFDLWGRGTLVTVSS
VL: EIVLTQSPGTLSLSPGERATLSCRASQSVTSSYLAWYQQKPGQTPRLLIYGASSRATGIPDRISGSGSGTDFTLTVSRLEPEDFAVYYCQQYGSSPPYTFGQGTKLEIKR
B7: VG9B57 (antibody, human IgG1, kappa, V domains shown)
VH: EVQLVESGGGLVKPGGSLRLSCAASGFTFSSHDMNWVRQAPGKGLGWVSSISSSSSYIFYADSVKGRFTISRDNAKNSLYLQMSSLRAEDTAVYYCARDLGVGVRDYYYYGMDVWGQGTMVTVSS
VL: DIQMTQSPSAMSASVGDRVTITCRASQDITNYLAWFQQKPGKVPKRLIYAASSLQGGVPSRFSGSGSGTEFTLTISSLQPEDFSTYYCLQHDTYPYTFGQGTKLEIKR
B8: VG9B21 (antibody, human IgG1, kappa, V domains shown)
VH: EVQLLESGGGLVKPGGSLRLSCAASGFSFSNYDMNWVRQAPRKGLEWVSSISSSSHYIYYADSLKGRFTISRDNAKNSLFLQMNSLRAEDTAVYYCARDRGVTTDYYYYALDVWGQGTMVTVSS
VL: DIVMTQSPSSLSASVGDRVTITCRASQGIYNYLAWYQQKPGNVPKLLIYAASTLQSGVPSRFSGSGSGTDFSLTISSLQPEDFTTYYCQKYNRAPFTFGPGTKVDIKR
B9: VG9B44 (antibody, human IgG1, kappa, V domains shown)
VH: QVQLQQSGPGLVKPSQTLSLTCAISGDSVSSNSAAWNWIRQSPSRGLEWLGRTYYRSKWYNDYPISVKSRISINPDTSKNQFSLQLNSVTPEDTAVYYCARESGSYYTDGFDIWGQGTMVTVSS
VL: DIQMTQSPSFLSASVGDRVTITCRASQGISSYLAWYQQKPGKAPKLLIYAASTLQSGVPSRFSGSGSGTEFTLTISSLQPEDFATYYCQEFNSYPYTFGQGTKLEIKR
B10: VG9B67 (antibody, human IgG1, kappa, V domains shown)
VH: EVQLVESGGGLVKPGGSLRLSCAASGFTFSSYTMNWVRQAPGKGLEWVSSISSSSSYIDYAESVKGRFTISRDNAKNSLYLQMNSLRAEDTAVYYCARDGDILATIRGSFDYWGQGTTVTVSS
VL: DIVMTQTPLSLPVTPGEPASISCRSSQSLLDSDAGNTYLDWYLQKPGQSPQLLIYTLSYRASGVPDRFSGSGSGTDFTLKISRVEAEDVAIYYCMQRIEFPITFGQGTKVEIKR
B11: VG9B127 (antibody, human IgG1, kappa, V domains shown)
VH: B10 VH with E1Q, A23T, S30G, S31A, Y60F, N84I, L103V, A104S, T117A, T118L
VL: B10 VL with D1E, T7S, A34D, A90G
B12: VG9B66 (antibody, human IgG1, kappa, V domains shown)
VH: B10 VH with S31T, S56F, I58M, E62D, Y80S, Q82L, L103V, T118M
VL: EIVLTQSPSSLSTSVGDRVTITCRASQDITNFLAWYQQKPGKLPKLLIYTASTLQSGVPSRFSGSASGPDFTLTISSLQPEDVATYYCQKYNSAPFTFGPGTKVEIKR
B13: VG9B152 (antibody, human IgG1, lambda, V domains shown)
VH: EVQLVESGGGLVRPGGSLRLSCEASGFTFSSYSMIWVRQAPGKGLEWVSSISSSSDYIYNADSVKGRFTISRDNAKNSLYLQMNSLRAEDTAVYYCARDWELLGFDCWGQGTTVTVSS
VL: SYELMQPPSVSVSPGQTASITCSGDKLGDKYACWYQQKPGQSPVLVIYQHNKRPSGIPERFSGSNSGKTATLTISGTQAMDEADYYCQAWDSTTVVFGGGTKLTVLG

Biological target: Vg5/Vd2 TCR on SKW3 cells (UniProt A0JD36)
Assay: flow cytometry DRC binding 37 C, SKW3 cells expressing Vg5/Vd2

Chain of Vg5/Vd2 TCR on SKW3 cells (A0JD36 20-115): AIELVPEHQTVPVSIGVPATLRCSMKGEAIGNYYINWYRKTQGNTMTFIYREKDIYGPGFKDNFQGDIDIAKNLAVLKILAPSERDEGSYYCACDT

Max. Activity (fold over background) | Binder
21.5 | B1

Biological target: Vg9/Vd2 TCR on SKW3_4 cells (UniProt Q99603)
Assay: flow cytometry DRC binding 37 C, SKW3_4 cells expressing Vg9/Vd2

Chain of Vg9/Vd2 TCR on SKW3_4 cells (Q99603 21-122, chain 1 of 2): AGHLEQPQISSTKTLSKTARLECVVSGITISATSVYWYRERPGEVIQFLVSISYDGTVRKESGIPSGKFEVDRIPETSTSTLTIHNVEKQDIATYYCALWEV
Chain of Vg9/Vd2 TCR on SKW3_4 cells (A0JD36 20-115, chain 2 of 2, further chain): as the sequence (A0JD36 20-115) above

Max. Activity (fold over background) | Binder
46.1 | B1

Biological target: Vg9/Vd1 TCR on SKW3 cells (UniProt Q99603)
Assay: flow cytometry DRC binding 37 C, SKW3 cells expressing Vg9/Vd1

Chain of Vg9/Vd1 TCR on SKW3 cells (Q99603 21-122): as the sequence (Q99603 21-122, chain 1 of 2) above

Max. Activity (fold over background) | Binder
1.46 | B1

Biological target: Vg9/Vd1 TCR on SKW3 cells (UniProt Q99603)
Assay: flow cytometry, dose-response binding at 37° C. on SKW3 cells expressing Vg9/Vd1

Max. Activity (fold over background) | Binder
381 | B2
377 | B3
249 | B4
40.6 | B5
408 | B6
75.9 | B7
121 | B8
375 | B9
318 | B10
318 | B11
179 | B12
352 | B13

Biological target: Vg9/Vd2 TCR on SKW3_4 cells (UniProt Q99603)
Assay: flow cytometry, dose-response binding at 37° C. on SKW3_4 cells expressing Vg9/Vd2

Max. Activity (fold over background) | Binder
156 | B2
173 | B3
96.3 | B4
16.7 | B5
176 | B6
30.8 | B7
39.7 | B8
170 | B9
128 | B10
91.9 | B11
33.9 | B12
141 | B13

Biological target: Vg5/Vd2 TCR on SKW3 cells (UniProt A0JD36)
Assay: flow cytometry, dose-response binding at 37° C. on SKW3 cells expressing Vg5/Vd2

Max. Activity (fold over background) | Binder
17.2 | B2
2.85 | B3
2.44 | B4
1.42 | B5
8.45 | B6
1.04 | B7
1.86 | B8
2.13 | B9
1.14 | B10
1.78 | B11
1.04 | B12
1.64 | B13
